Here are results for 4 molecules from patent publication US20220411519A1 (SHANGHAI NOVAMAB BIOPHARMACEUTICALS, published 2022).

For test [1], the target named is T1, human IL-4R on cells (293F/IL-4R cells; HEK293F cells with high IL-4Rα expression) (human, UniProt P24394 26-825).
T1 construct: whole, on cells; also called IL-4Ra
Kind of test: flow cytometry blocking of IL-4/IL-4R on HEK293F cells with high IL-4Rα expression, SA-PE. The method, then:
(§1) (1) HEK293F cells with high IL-4Rα expression were collected, centrifuged at 1000 rpm for 5 min, and the supernatant was discarded. The cells were re-suspended with 5 mL PBS and centrifuged at 1000 rpm for 5 min, and the supernatant was discarded. Then the cells were re-suspended with 2 mL PBS, and counted. The cells were divided into 96-well plates with 3×10⁵ cells per well. (2) Humanized antibody huNb103 (amino acid sequence refers to SEQ ID NO:16) and Dupilumab were diluted by 2-fold gradient dilution (40 ug/mL, 20 ug/mL, 10 ug/mL, 5 ug/mL, 2.5 ug/mL, 1.25 ug/mL, 0.625 ug/mL, 0.313 ug/mL, 0.156 ug/mL, 0.078 ug/mL). The cells in the 96-well plate were resuspended with the diluted antibody and incubated at 4° C. for 20 min. (3) Centrifugation was performed at 3000 rpm at 4° C. for 4 min, and 200 ul PBS was added to each well. After resuspension, centrifugation was performed at 3000 rpm at 4° C. for 4 min. (4) Diluted SA-PE staining solution (diluted at 0.3:100) was added and incubated at 4° C. for 20 min. (5) Centrifugation was performed at 3000 rpm at 4° C. for 4 min, and the supernatant was discarded, 200 uL PBS was added into each well to wash cells for two times, then 200 uL PBS was added again to re-suspend the cells. The cells were transferred to flow tube to detect PE signal of each sample via flow cytometry.

Test [2] addresses T1, human IL-4R on cells (293F/IL-4R cells; …). Kind of test: flow cytometry on HEK293F cells with high IL-4Rα expression, anti-human Fc-FITC. The method, then:
as §1, with “per well;” for “per well.”, “Diluted anti-human Fc-FITC antibody” for “Diluted SA-PE staining solution”, “at 1:200)” for “at 0.3:100)”, “added” for “added again”, “detect FITC” for “detect PE”

The target is the same in test [3]. Kind of test: flow cytometry competition: antibody titrated against 5 ug/mL IL-4-biotin on 293F/IL-4R cells, SA-PE. The method, then:
(1) A certain number of 293F/IL-4R cells that were transitioned for 48 h were centrifuged at 1000 rpm for 5 min, the supernatant was discarded, the cells were re-suspended and washed with PBS for once, and counted. The cells were divided into 96-well plates at 100 ul/well, and then centrifuged at 3000 rpm at 4° C. for 4 min. (2) The supernatant was aspirated, and the single-domain antibody with different sequences in gradient diluted in example 1 was added (two-fold gradient dilution starting from 40 ug/mL). 50 uL was added to each well, and then 50 uL of 5 ug/mL IL-4-biotin was added to mix, and incubated at 4° C. for 20 min. (3) Centrifugation was performed at 3000 rpm at 4° C. for 4 min, and the supernatant was discarded. 200 uL PBS was added to each well to wash the cells, and the supernatant was discarded by centrifugation again. Diluted SA-PE staining solution was added and incubated at 4° C. for 20 min. (4) Centrifugation was performed at 3000 rpm at 4° C. for 4 min, and the supernatant was discarded. 200 uL PBS was added to each well to wash the cells, and the supernatant was discarded by centrifugation again. 200 uL PBS was added to re-suspend the cells, and the PE signal of the samples was detected by flow cytometry.
Background: A flow cytometer gives signals particle by particle.

The target is the same in test [4]. Kind of test: cell-based or functional assay.
Test [5] has as its target rhesus monkeys IL-4R (rhesus monkey, UniProt F6RUR0 26-232). Kind of test: ELISA, coated IL-4R, same method as for FIG. 6. The method, then: (§2) ELISA was used to verify whether the candidate antibody could cross-react with IL-4R proteins of different species, and the method was as follows: (1) 1 ug/mL human IL-4R, mouse IL-4R and cynomolgus monkey IL-4R were added into the plate and coated overnight at 4° C. with 100 uL/well. (2) After washing with PBST for 5 times, 300 uL 1% BSA was added to each well and sealed for 2 hours at room temperature. (3) After washing with PBST for 5 times, 100 uL of 2 ug/mL antibody to be tested was added and incubated at 37° C. for 1 hour. (4) After washing with PBST for 5 times, 100 uL diluted anti-HA antibody (diluted at 1:2000) was added and incubated at 37° C. for 1 hour. (4) After washing with PBST for 5 times, 100 uL diluted anti-mouse IgG antibody (diluted at 1:2000) was added and incubated at 37° C. for 30 minutes. (5) After washing with PBST for 5 times, 100 uL PA chromogenic solution was added and developing at 37° C. for 10 minutes, and the absorption value was measured at 405 nm wavelength with a microplate reader. The results are shown in FIG. 6, the candidate antibody Nb103 can recognize the human IL-4R, but not mouse and cynomolgus monkey IL-4R.
ELISA was used again to verify whether the candidate antibody could cross-react with IL-4R protein of different monkey types. The detection method was the same as above. […]

Test [6] concerns the target T2, mouse IL-4R (mouse, UniProt P16382 26-233, limits assumed).
T2 sequence (looked up): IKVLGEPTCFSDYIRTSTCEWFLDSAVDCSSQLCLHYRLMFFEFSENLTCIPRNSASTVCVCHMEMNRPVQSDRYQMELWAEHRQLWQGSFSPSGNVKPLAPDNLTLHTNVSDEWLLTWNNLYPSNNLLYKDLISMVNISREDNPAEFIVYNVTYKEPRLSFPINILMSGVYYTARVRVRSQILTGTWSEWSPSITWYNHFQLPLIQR
Kind of test: ELISA, IL-4R coated at 1 ug/mL, anti-HA detection. The method, then:
as §2
A general note: In an ELISA, binding on a coated surface is turned into a signal by an enzyme label.

Test [7] deals with cynomolgus monkey IL-4R (cynomolgus monkey, UniProt A0A2K5V580 33-239). Kind of test: ELISA, IL-4R coated at 1 ug/mL, anti-HA detection. The method, then:
as §2

B1: Dupilumab (antibody, V domains shown)
VH: EVQLVESGGGLEQPGGSLRLSCAGSGFTFRDYAMTWVRQAPGKGLEWVSSISGSGGNTYYADSVKGRFTISRDNSKNTLYLQMNSLRAEDTAVYYCAKDRLSITIRPRYYGLDVWGQGTTVTVSS
VL: DIVMTQSPLSLPVTPGEPASISCRSSQSLLYSIGYNYLDWYLQKSGQSPQLLIYLGSNRASGVPDRFSGSGSGTDFTLKISRVEAEDVGFYYCMQALQTPYTFGQGTKLEIKR
For B1, the values for the IC50 in test [1] and in test [3] were 1.13 µg/mL and 0.511 µg/mL, respectively. In addition, a half-maximal response in test [2] (EC50) required 0.36 µg/mL.

B2: IL-4R single-domain antibody Nb103 (VHH)
VHH: QVQLQESGGGSVQAGGSLRVSCAASGSTSYRYCMAWFRQAPGKEREAVASIRPRSGRAYYADSVKGRFTISLDNAKNTLYLQMNSLKPEDTAMYYCAASDNDGNCQDYWGKGTQVTVSS
notes: also called candidate single-domain antibody Nb103; IL-4Ra Nb103 antibody; not shown: tag(s) from the pMECS phage vector
Consider B2, for which the “inhibition of TF-1 cell proliferation induced by IL-4 (CCK8, OD450)” value (from here on “inhibition … by IL-4 (CCK8, OD450)”) in test [4] came to 0.149 µg/mL. Further, the “inhibition of TF-1 cell proliferation induced by IL-13 (CCK8, OD450)” value (“inhibition … by IL-13 (CCK8, OD450)” for short) in test [4] was determined as 0.066 µg/mL. Also, the binding result in test [5] is on record as “no binding”; in test [6] it was “no binding (tested: 2 ug/mL antibody)”; in test [7], “no binding (tested: 2 ug/mL antibody)”. This molecule also displayed a half-maximal inhibitory concentration (IC50) in test [3] of 0.274 µg/mL.

B3: humanized antibody huNb103 (humanized single-domain antibody fused with Fc) (Fc fusion)
chain: EVQLVESGGGLVQPGGSLRLSCAASGSTSYRYCMAWFRQAPGKGLEAVASIRPRSGRAYYADSVKGRFTISRDNSKNTLYLQMNSLRAEDTAVYYCAASDNDGNCQDYWGKGTLVTVSSESKYGPPCPPCPAPEFLGGPSVFLFPPKPKDTLMISRTPEVTCVVVDVSQEDPEVQFNWYVDGVEVHNAKTKPREEQFNSTYRVVSVLTVLHQDWLNGKEYKCKVSNKGLPSSIEKTISKAKGQPREPQVYTLPPSEEMTKNQVSLTCLVKGFYPSDIAVEWESNGQPENNYKTTPPVLDSDGSFFLYSRLTVDKSRWQEGNVFSCSVMHEALHNHYTQKSLSLSLG
notes: called bivalent, so two chains; expressed in HEK293F; also called humanized bivalent antibody; human bivalent antibody
In test [1], B3 came in with a concentration for half-maximal inhibition (IC50) of 0.474 µg/mL. Moreover, in test [4], the “inhibition … by IL-4 (CCK8, OD450)” value was determined as 0.032 µg/mL and the “inhibition … by IL-13 (CCK8, OD450)” value amounted to 0.059 µg/mL. This molecule also showed a half-maximal effective concentration (EC50) in test [2] of 0.286 µg/mL.

B4: humanized tetravalent antibody tet-huNb103 (Fc fusion)
chain: EVQLVESGGGLVQPGGSLRLSCAASGSTSYRYCMAWFRQAPGKGLEAVASIRPRSGRAYYADSVKGRFTISRDNSKNTLYLQMNSLRAEDTAVYYCAASDNDGNCQDYWGKGTLVTVSSGGGGSGGGSEVQLVESGGGLVQPGGSLRLSCAASGSTSYRYCMAWFRQAPGKGLEAVASIRPRSGRAYYADSVKGRFTISRDNSKNTLYLQMNSLRAEDTAVYYCAASDNDGNCQDYWGKGTLVTVSSESKYGPPCPPCPAPEFLGGPSVFLFPPKPKDTLMISRTPEVTCVVVDVSQEDPEVQFNWYVDGVEVHNAKTKPREEQFNSTYRVVSVLTVLHQDWLNGKEYKCKVSNKGLPSSIEKTISKAKGQPREPQVYTLPPSEEMTKNQVSLTCLVKGFYPSDIAVEWESNGQPENNYKTTPPVLDSDGSFFLYSRLTVDKSRWQEGNVFSCSVMHEALHNHYTQKSLSLSLG
On to B4, for which, in test [4], the “inhibition … by IL-4 (CCK8, OD450)” value stood at 0.02 µg/mL and the “inhibition … by IL-13 (CCK8, OD450)” value came out at 0.026 µg/mL.

What is called IC50 is the concentration that gives 50% inhibition. By EC50 is commonly meant the concentration at which the effect is half-maximal.
